One data set has as its target MBP-FUS-His6 S439E (UniProt P35637 1-526, S439E). The data set is described as follows: EMSA; 5 mM MgCl2, 0.1 mg/ml yeast tRNA; 5 nM RNA, 0-10 uM protein; 20 mM NaPO4 pH 8, 150 mM NaCl, 5% glycerol, 1 mM DTT, 5 mM MgCl2, 0.5 mg/ml BSA, 0.1 mg/ml yeast tRNA, 1 U/ul RNase inhibitor, 20 min RT; 6% native PAGE in 0.5x TBE. The conditions noted are these: protein: recombinant; tags: N-terminal MBP, C-terminal His6; hairpin with 3' single-stranded tail. For orientation: Mobility shift assays separate free from complexed probe on a gel.

In a further data set the target is MBP-FUS-His6 S439A (UniProt P35637 1-526, S439A). Described as above. The conditions noted are these: protein: recombinant; tags: N-terminal MBP, C-terminal His6; hairpin with 3' single-stranded tail.
Sequence of MBP-FUS-His6 S439A (P35637 whole entry S439A): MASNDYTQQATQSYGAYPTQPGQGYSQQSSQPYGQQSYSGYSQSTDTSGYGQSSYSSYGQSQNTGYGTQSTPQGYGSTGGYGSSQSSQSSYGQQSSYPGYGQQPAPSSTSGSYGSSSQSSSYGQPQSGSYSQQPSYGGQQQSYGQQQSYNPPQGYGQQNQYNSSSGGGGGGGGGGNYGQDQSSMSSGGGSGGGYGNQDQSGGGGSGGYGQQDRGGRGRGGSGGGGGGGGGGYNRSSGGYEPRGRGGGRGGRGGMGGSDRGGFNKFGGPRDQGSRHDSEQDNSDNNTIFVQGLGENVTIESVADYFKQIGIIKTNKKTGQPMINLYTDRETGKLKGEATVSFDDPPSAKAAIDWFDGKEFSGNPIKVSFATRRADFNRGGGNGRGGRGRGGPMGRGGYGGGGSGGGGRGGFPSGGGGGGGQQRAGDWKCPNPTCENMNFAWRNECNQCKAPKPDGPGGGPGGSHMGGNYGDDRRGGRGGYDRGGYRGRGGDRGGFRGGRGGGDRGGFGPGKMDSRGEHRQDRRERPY

Sequence of MBP-FUS-His6 S439E (P35637 whole entry S439E): as the sequence (P35637 whole entry S439A) above, with A439E counted along it

B1: SON pre-mRNA stem loop with downstream GGU motif (structured_RNA)
RNA: GGAUCUUUAACUACUCAAGAUACUGAACAUGACAUGGUA
Regarding B1, the binding result in the data set with MBP-FUS-His6 S439E was “no binding”; with MBP-FUS-His6 S439A, “binds”.

(Values after publication PMC9258132, “Multi-omics profiling identifies a deregulated FUS-MAP1B axis in ALS/FTD–associated UBQLN2 mutants”.)
